In patent publication US20260103490A1:
Where no end group is shown, it is not given here. [ ]: non-standard residue; d: D form.

Experiments:
[1] = biological target: NbALFA^ST (NbALFA clone 1G5); experiment: off-rate assay: peptide elution from NbALFA^ST resin; tag position C
[2] = biological target: NbALFA^ST (NbALFA clone 1G5); experiment: off-rate assay: peptide elution from NbALFA^ST resin; tag position N

Chain of NbALFA^ST (NbALFA clone 1G5) (VHH, as listed by the source): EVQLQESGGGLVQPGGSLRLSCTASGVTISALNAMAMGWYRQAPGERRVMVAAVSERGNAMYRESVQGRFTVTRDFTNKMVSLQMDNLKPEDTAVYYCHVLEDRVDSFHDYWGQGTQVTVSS

B1: gp…. (SEQ ID NO: 108) (peptide)
peptide: GPSGLEQELRRRL
[1]
  t1/2: < 2 min

B2: …s (SEQ ID NO: 110) (peptide)
peptide: MSGLEQELRRRLTP[code s]
modifications: not fully specified; printed as MSGLEQELRRRLTPs
[2]
  t1/2: < 2 min
